Results as given in IntAct's records for PubMed 23435380.

B1: Protein phosphatase EYA2 (Homo sapiens), O00167-1 (parent)
chain: MVELVISPSLTVNSDCLDKLKFNRADAAVWTLSDRQGITKSAPLRVSQLFSRSCPRVLPRQPSTAMAAYGQTQYSAGIQQATPYTAYPPPAQAYGIPSYSIKTEDSLNHSPGQSGFLSYGSSFSTSPTGQSPYTYQMHGTTGFYQGGNGLGNAAGFGSVHQDYPSYPGFPQSQYPQYYGSSYNPPYVPASSICPSPLSTSTYVLQEASHNVPNQSSESLAGEYNTHNGPSTPAKEGDTDRPHRASDGKLRGRSKRSSDPSPAGDNEIERVFVWDLDETIIIFHSLLTGTFASRYGKDTTTSVRIGLMMEEMIFNLADTHLFFNDLEDCDQIHVDDVSSDDNGQDLSTYNFSADGFHSSAPGANLCLGSGVHGGVDWMRKLAFRYRRVKEMYNTYKNNVGGLIGTPKRETWLQLRAELEALTDLWLTHSLKALNLINSRPNCVNVLVTTTQLIPALAKVLLYGLGSVFPIENIYSATKTGKESCFERIMQRFGRKAVYVVIGDGVEEEQGAKKHNMPFWRISCHADLEALRHALELEYL
partner: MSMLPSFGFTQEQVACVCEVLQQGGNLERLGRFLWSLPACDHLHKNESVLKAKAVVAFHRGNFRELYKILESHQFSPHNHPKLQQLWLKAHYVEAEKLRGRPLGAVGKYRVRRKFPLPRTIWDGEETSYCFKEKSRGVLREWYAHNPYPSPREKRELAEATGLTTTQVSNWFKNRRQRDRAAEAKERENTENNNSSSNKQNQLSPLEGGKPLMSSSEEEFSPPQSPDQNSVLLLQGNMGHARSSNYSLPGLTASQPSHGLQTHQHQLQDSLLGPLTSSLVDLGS
B2: Homeobox protein SIX1 (Homo sapiens), Q15475 (parent)
chain: B1 partner
partner: B1 chain

Variants of: B1
Details: with six1_human SIX1, Q15475

For MVELVISPSLTVNSDCLDKLKFNRADAAVWTLSDRQGITKSAPLRVSQLFSRSCPRVLPRQPSTAMAAYGQTQYSAGIQQATPYTAYPPPAQAYGIPSYSIKTEDSLNHSPGQSGFLSYGSSFSTSPTGQSPYTYQMHGTTGFYQGGNGLGNAAGFGSVHQDYPSYPGFPQSQYPQYYGSSYNPPYVPASSICPSPLSTSTYVLQEASHNVPNQSSESLAGEYNTHNGPSTPAKEGDTDRPHRASDGKLRGRSKRSSDPSPAGDNEIERVFVWDLDETIIIFHSLLTGTFASRYGKDTTTSVRIGLMMEEMIFNLADTHLFFNDLEDCDQIHVDDVSSDDNGQDLSTYNFSADGFHSSAPGANLCLGSGVHGGVDWMRKLAFRYRRVKEMYNTYKNNVGGLIGTPKRETWLQLRAELEALTDLWLTHSLKALNLINSRPNCVNVLVTTTQLIPALAKVLLYGLGSVFPIENIYSATKTGKESCFERIMQRFGRKAVYVVIGDGVEEEQGAKKHNMRFWRISCHADLEALRHALELEYL [P516R], which “effect of a mutation on the interaction” value is on record?
Its value is “decreasing interaction strength”.

For MVELVISPSLTVNSDCLDKLKFNRADAAVWTLSDRQGITKSAPLRVSQLFSRSCPRVLPRQPSTAMAAYGQTQYSAGIQQATPYTAYPPPAQAYGIPSYSIKTEDSLNHSPGQSGFLSYGSSFSTSPTGQSPYTYQMHGTTGFYQGGNGLGNAAGFGSVHQDYPSYPGFPQSQYPQYYGSSYNPPYVPASSICPSPLSTSTYVLQEASHNVPNQSSESLAGEYNTHNGPSTPAKEGDTDRPHRASDGKLRGRSKRSSDPSPAGDNEIERVFVWDLDETIIIFHSLLTGTFASRYGKDTTTSVRIGLMMEEMIFNLADTHLFFNDLEDCDQIHVDDVSSDDNGQDLSTYNFSADGFHSSAPGANLCLGSGVHGGVDWMRKLAFRYRRVKEMYNTYKNNVGGLIGTPKRETWLQLRAELEALTDLWLTHSLKALNLINSRPNCVNVLVTTTQLIPALAKVLLYGLGSVFPIENIYSATKTGKESCFERIMQRFGRKAVYVVIGDGVEEEQGAKKHNMPFWRISCHADLEALRHRLELEYL [A532R], which “effect of a mutation on the interaction” value is on record?
Its value is “disrupting interaction strength”.

Variants of: B2
Details: with EYA2, O00167-1

Which “effect of a mutation on the interaction” value does the source give for MSMLPSFGFTQEQVARVCEVLQQGGNLERLGRFLWSLPACDHLHKNESVLKAKAVVAFHRGNFRELYKILESHQFSPHNHPKLQQLWLKAHYVEAEKLRGRPLGAVGKYRVRRKFPLPRTIWDGEETSYCFKEKSRGVLREWYAHNPYPSPREKRELAEATGLTTTQVSNWFKNRRQRDRAAEAKERENTENNNSSSNKQNQLSPLEGGKPLMSSSEEEFSPPQSPDQNSVLLLQGNMGHARSSNYSLPGLTASQPSHGLQTHQHQLQDSLLGPLTSSLVDLGS [C16R] here?
The value was “disrupting interaction strength”.
